According to PMC6644751 (2018):
Like-named read-outs stand apart in the source and are kept apart here.

T1: S100B (Homo sapiens, UniProt P04271)
T1 chain: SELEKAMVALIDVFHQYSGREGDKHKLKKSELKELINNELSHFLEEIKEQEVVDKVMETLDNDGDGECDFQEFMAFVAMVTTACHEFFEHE

T2: S100A11 (Homo sapiens, UniProt P31949)
T2 chain: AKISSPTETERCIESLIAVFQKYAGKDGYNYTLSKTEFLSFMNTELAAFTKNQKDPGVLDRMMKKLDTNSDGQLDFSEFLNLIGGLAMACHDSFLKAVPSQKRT


Columns and labels:
Experiment in all cases: HSQC-NMR titration
S100B [1] = target: T1, S100B
S100B [2] = target: T1, S100B
S100A11 = target: T2, S100A11

Binder | Kd (S100B [1]) | Kd (S100B [2]) | Kd (S100A11)
S100A11 (protein, Ca2+, monomers after urea denaturation/renaturation) AKISSPTETERCIESLIAVFQKYAGKDGYNYTLSKTEFLSFMNTELAAFTKNQKDPGVLDRMMKKLDTNSDGQLDFSEFLNLIGGLAMACHDSFLKAVPSQKRT | ~2650 nM | ~2800 nM | –
S100B (protein, Ca2+, monomers after urea denaturation/renaturation) SELEKAMVALIDVFHQYSGREGDKHKLKKSELKELINNELSHFLEEIKEQEVVDKVMETLDNDGDGECDFQEFMAFVAMVTTACHEFFEHE | – | – | ~2500 nM
